Experimental data: patent US20240100133A1 (SAINT LOUIS UNIVERSITY, published 2024)

Columns and labels:
[1] = target: T1, Cluster of Differentiation 14 (CD14), human, endogenous in primary human monocytes (human, UniProt P08571 20-345); assay: co-immunoprecipitation with anti-GzmA from lysates of GzmA-treated human monocytes, western blot for CD14
T1 construct: whole, on cells; also called CD14 receptor
T1 sequence (looked up): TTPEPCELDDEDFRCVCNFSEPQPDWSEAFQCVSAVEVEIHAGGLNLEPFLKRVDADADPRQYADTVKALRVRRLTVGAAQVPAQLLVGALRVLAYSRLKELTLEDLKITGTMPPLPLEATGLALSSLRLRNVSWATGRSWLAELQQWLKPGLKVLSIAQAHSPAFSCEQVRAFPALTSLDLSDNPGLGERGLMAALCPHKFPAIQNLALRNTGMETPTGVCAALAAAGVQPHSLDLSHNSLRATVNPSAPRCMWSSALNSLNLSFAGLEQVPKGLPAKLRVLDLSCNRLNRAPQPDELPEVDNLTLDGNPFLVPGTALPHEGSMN

[2] = target: T2, Toll-like Receptor 4 (TLR4), human, endogenous in primary human monocytes (human, UniProt O00206 24-839); assay: co-immunoprecipitation with anti-GzmA from lysates of GzmA-treated human monocytes, western blot for TLR4
T2 construct: whole, on cells
T2 sequence (O00206 24-839): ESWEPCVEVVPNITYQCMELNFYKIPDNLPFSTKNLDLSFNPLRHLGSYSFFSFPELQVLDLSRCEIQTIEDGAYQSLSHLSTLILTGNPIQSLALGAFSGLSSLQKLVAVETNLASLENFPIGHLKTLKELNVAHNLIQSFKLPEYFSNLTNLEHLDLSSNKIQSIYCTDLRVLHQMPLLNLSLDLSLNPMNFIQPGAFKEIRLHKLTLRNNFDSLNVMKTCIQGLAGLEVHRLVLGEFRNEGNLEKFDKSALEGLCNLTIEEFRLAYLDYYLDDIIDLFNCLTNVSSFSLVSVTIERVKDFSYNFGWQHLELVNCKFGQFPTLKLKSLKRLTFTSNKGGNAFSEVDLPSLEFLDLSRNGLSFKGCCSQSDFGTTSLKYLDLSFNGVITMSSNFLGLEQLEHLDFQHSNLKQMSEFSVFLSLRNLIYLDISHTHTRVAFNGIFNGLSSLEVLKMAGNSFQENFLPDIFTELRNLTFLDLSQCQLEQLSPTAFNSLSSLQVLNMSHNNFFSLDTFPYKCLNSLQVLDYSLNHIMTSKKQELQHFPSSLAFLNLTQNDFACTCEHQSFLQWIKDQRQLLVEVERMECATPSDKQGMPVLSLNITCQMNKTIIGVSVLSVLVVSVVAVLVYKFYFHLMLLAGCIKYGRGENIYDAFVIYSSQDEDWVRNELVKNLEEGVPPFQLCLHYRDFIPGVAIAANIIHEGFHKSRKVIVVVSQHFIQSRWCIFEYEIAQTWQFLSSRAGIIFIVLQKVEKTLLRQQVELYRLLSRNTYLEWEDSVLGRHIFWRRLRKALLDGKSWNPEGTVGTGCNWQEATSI

binding result [1]: no binding
binding result [2]: no binding
B1: Monomeric Granzyme A C93S, recombinant human, His-tagged (GzmA-C93S) (enzyme)
chain: IIGGNEVTPHSRPYMVLLSLDRKTICAGALIAKDWVLTAAHCNLNKRSQVILGAHSITREEPTKQIMLVKKEFPYPSYDPATREGDLKLLQLMEKAKINKYVTILHLPKKGDDVKPGTMCQVAGWGRTHNSASWSDTLREVNITIIDRKVCNDRNHYNFNPVIGMNMVCAGSLRGGRDSCNGDSGSPLLCEGVFRGVTSFGLENKCGDPRGPGVYILLSKKHLNWIIMTIKGAV
notes: Forms only monomers; also called monomeric GzmA; GzmA-monomer; not shown: His tag
